{
  "source": "paper PMC9546572",
  "about": "(Proceedings of the National Academy of Sciences of the …, 2022)",
  "molecules": {"B1": {"name": "vertex protein gp24* (cleaved form of gp24) of bacteriophage T4 (natural protein, UniProt P19896 11-427, looked up)", "chain": "STTTNSNSIGRPNLVALTRATTKLIYSDIVATQRTNQPVAAFYGIKYLNPDNEFTFKTGATYAGEAGYVDREQITELTEESKLTLNKGDLFKYNNIVYKVLEDTPFATIEESDLELALQIAIVLLKVRLFSDAASTSKFESSDSEIADARFQINKWQTAVKSRKLKTGITVELAQDLEANGFDAPNFLEDLLATEMADEINKDILQSLITVSKRYKVTGITDSGFIDLSYASAPEAGRSLYRMVCEMVSHIQKESTYTATFCVASARAAAILAASGWLKHKPEDDKYLSQNAYGFLANGLPLYCDTNSPLDYVIVGVVENIGEKEIVGSIFYAPYTEGLDLDDPEHVGAFKVVVDPESLQPSIGLLVRYALSANPYTVAKDEKEARIIDGGDMDKMAGRSDLSVLLGVKLPKIIIDE"}, "B2": {"name": "Soc (small outer capsid protein) of bacteriophage T4 (natural protein, UniProt P03715 1-80, looked up)", "chain": "MASTRGYVNIKTFEQKLDGNKKIEGKEISVAFPLYSDVHKISGAHYQTFPSEKAAYSTVYEENQRTEWIAANEDLWKVTG"}},
  "assay_in_all_cases": "cryo-EM structure",
  "key": {"[1]": {"biological_target": "major capsid protein gp23* (cleaved form of gp23) of bacteriophage T4 (bacteriophage T4)"}, "[2]": {"biological_target": "the molecule itself"}, "[3]": {"biological_target": "the molecule itself", "remark": "listed apart in the source"}},
  "note": "Read-outs that look alike come from different tables or passages of the source.",
  "data": [
    {"molecule": "major capsid protein gp23* (cleaved form of gp23) of bacteriophage T4 (natural protein)", "values": [
      {"measurement": "stoichiometry N", "setting": "[1]", "value": 6}
    ]},
    {"molecule": "B1", "values": [
      {"measurement": "stoichiometry N", "setting": "[2]", "value": 5}
    ]},
    {"molecule": "B2", "values": [
      {"measurement": "stoichiometry N", "setting": "[3]", "value": 3}
    ]}
  ]
}
